Results reported in patent US20170166643A1 (OSE IMMUNOTHERAPEUTICS, published 2017).
Where “and” joins values, the source holds several entries; their conditions need not be identical. Equal entries are not always repeated.

Molecular target: T1, Recombinant human CD28 (R&D Systems) (human, UniProt P10747 19-152)
T1 construct: Coated on microtiter plates at 1 ug/mL; also called recombinant CD28
Assay: ELISA on immobilized recombinant human CD28, purified Mono28Fc

B1: Mono28Fc, recombinant monovalent antibody derived from the anti-CD28 antibody CD28.3 (heterodimer VH-CH2CH3 + VL-CH2CH3, human IgG1 CH2-CH3) (antibody, V domains shown)
VH: VKLQQSGAELVKPGASVRLSCKASGYTFTEYIIHWIKLRSGQGLEWIGWFYPGSNDIQYNAKFKGKATLTADKSSSTVYMELTGLTSEDSAVYFCARRDDFSGYDALPYWGQGTMVTVSS
VL: DIQMTQSPASLSVSVGETVTITCRTNENIYSNLAWYQQKQGKSPQLLIYAATHLVEGVPSRFSGSGSGTQYSLKITSLQSEDFGNYYCQHFWGTPCTFGGGTKLEIKR
notes: Expressed in COS cells from pSecTag2B with the mouse Ig kappa leader (cleaved on secretion); also called co-transfection with pSec-VH-Fc(CH2-CH3) and pSec-VL-Fc(CH2-CH3)
- EC50: 0.1 µg/mL and 1.16 nM
